Laboratory results as given in IntAct's records for PubMed 17928861.

B1: DOA4-independent degradation protein 4 (Saccharomyces cerevisiae), P36108 (parent)
chain: MSLFEWVFGKNVTPQERLKKNQRALERTQRELEREKRKLELQDKKLVSEIKKSAKNGQVAAAKVQAKDLVRTRNYIQKFDNMKAQLQAISLRIQAVRSSDQMTRSMSEATGLLAGMNRTMNLPQLQRISMEFEKQSDLMGQRQEFMDEAIDNVMGDEVDEDEEADEIVNKVLDEIGVDLNSQLQSTPQNLVSNAPIAETAMGIPEPIGAGSEFHGNPDDDLQARLNTLKKQT
partner: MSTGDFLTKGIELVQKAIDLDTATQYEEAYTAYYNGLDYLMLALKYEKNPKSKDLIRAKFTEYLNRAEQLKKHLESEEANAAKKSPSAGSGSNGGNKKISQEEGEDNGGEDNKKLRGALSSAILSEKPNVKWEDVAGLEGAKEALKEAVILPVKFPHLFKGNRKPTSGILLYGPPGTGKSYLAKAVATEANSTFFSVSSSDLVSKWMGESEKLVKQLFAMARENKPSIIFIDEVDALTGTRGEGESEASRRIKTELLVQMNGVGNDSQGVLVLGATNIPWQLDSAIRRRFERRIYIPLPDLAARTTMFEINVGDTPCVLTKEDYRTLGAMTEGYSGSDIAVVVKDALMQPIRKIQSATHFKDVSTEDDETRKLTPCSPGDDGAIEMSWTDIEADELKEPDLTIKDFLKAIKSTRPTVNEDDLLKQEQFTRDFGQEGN

Variants of: B1
Details: with vps4_yeast VPS4, P52917
L225D was tested, and the “effect of a mutation on the interaction” value was “disrupting interaction strength”.
For L221D, the “effect of a mutation on the interaction” value was “disrupting interaction strength”.
K229D was tested, and the “effect of a mutation on the interaction” value was “disrupting interaction strength”.
With R224D the “effect of a mutation on the interaction” value was “disrupting interaction strength”.
With L228D the “effect of a mutation on the interaction” value was “disrupting interaction strength”.
